Experiment [1] addresses T1, huNav1.7α + β1 (human).
T1 construct: HEK293 cells; also called huNav1.7-beta1; huNav1.7-β1
The experiment in a line: binding FACS, HEK.

In experiment [2] the target is T2, huNav1.7α (human, UniProt Q15858 1-1988).
T2 construct: HEK cells expressing the α subunit without β subunits; also called huNav1.7 (alpha-subunit); Human Nav1.7α
The experiment can be described thus: binding FACS, HEK.

Experiment [3] deals with T3, huNav157chim14 (human).
T3 construct: HEK Flp-In cells; also called huNav157 chimera 14
The experiment in a line: binding FACS, HEK Flp-In.

Experiment [4] has as its target T4, huNav1.7α(F276V) + β1-β2-β3 (human, UniProt Q15858 1-1988; A5A6L6 19-218; O60939 30-215; Q2KI11 23-215).
T4 construct: polyprotein as encoded, P2A sites liberate the subunits; the entry already carries F276V; also called huNav1.7(F276V)-beta1-beta2-beta3
The experiment in a line: binding FACS, CHO FlpIn cells. Here is the method:
(§1) Binding of the ISVDs to cell-expressed Nav1.7α was detected via murine anti-Flag (Sigma, catalog #F1804). Briefly, cells were resuspended in FACS buffer (PBS, 10% FBS, NaN₃) and transferred to a 96-well V-bottom plate at 1×10^5 cells/well. Purified FLAG3-tagged ISVD was diluted in FACS buffer and added to the cells for 30 minutes at 4° C. […] Prior to the read-out, the samples were resuspended in 1 μg/mL propidium iodide (Sigma, catalog #P4170) to exclude dead cells. Between each step, the cells were centrifuged for 5 minutes at 200 grams and washed with 100 μL/well FACS buffer.
(§2) Based on the huNav1.7α model (as described above) the following huNav1.7α-rhNav1.7α polymorphisms can be allocated to the extracellular part of DI: N146S, F276V, R277Q, E281V and V331M. The first of the residues is in DI S1-S2 whereas the latter four residues belong to DI S5-S6. FACS binding studies (as described above) were performed to stable CHO FlpIn cell lines expressing different variants of huNav1.7+β1−β2−β3 each including one of the four possible extracellular huNav1.7α-rhNav1.7α polymorphisms in the DI S5-S6 region: F276V, R277Q, E281V and V331M (Table 23 and FIGS. 22A-22F). Individual polymorphisms were each sufficient to abolish the binding of F0103265B04, F0103362B08, F010301080, and F0103262B06 to huNav1.7α, recapitulating the absence of binding on rhNav1.7α. F0103262CO2, F0103275B05 and F0103387G05 are more subtly affected in terms of EC50 or Bmax by some of the polymorphisms. None of the individual DI S5-S6 polymorphisms by themselves appear to have an impact on the binding of the two rhNav1.7α cross-reactive ISVDs F0103387G04 and F0103464B09. In addition, no effect on binding of the two ISVDs was observed (data not shown) for the three extracellular DIV VSD huNav1.7α-rhNav1.7α polymorphisms Q1530P, H1531Y and E1534D (FIG. 22G).

In experiment [5] the target is T5, huNav1.7α(V331M) + β1-β2-β3 (human).
T5 construct: polyprotein as encoded; the entry already carries V331M; also called huNav1.7(V331M)-beta1-beta2-beta3
The experiment in a line: binding FACS, CHO FlpIn cells. The method, then: as §1, §2

The target of experiment [6] is T6, huNav1.7α + β1-β2-β3 (human, UniProt Q15858 1-1988; A5A6L6 19-218; O60939 30-215; Q2KI11 23-215).
T6 construct: Cell line (CHO FlpIn, HEK FlpIn, transient HEK293T) is named under assay; also called huNav1.7-beta1-beta2-beta3; human Nav1.7α with Navβ1, Navβ2 and Navβ3
The experiment in a line: binding FACS, CHO FlpIn cells. The method, then:
as §1, §2

In experiment [7] the target is T7, rhNav1.7α + β1-β2-β3 (rhesus monkey).
T7 construct: also called rhNav1.7-beta1-beta2-beta3; rhesus Nav1.7α
The experiment can be described thus: binding FACS, CHO FlpIn cells. The method, then:
as §1, §2

Experiment [8] addresses T8, huNav1.7α(E281V) + β1-β2-β3 (human).
T8 construct: polyprotein as encoded; the entry already carries E281V; also called huNav1.7(E281V)-beta1-beta2-beta3
The experiment in a line: binding FACS, CHO FlpIn cells. The method, then:
as §1, §2

In experiment [9] the target is T9, huNav1.7α(R277Q) + β1-β2-β3 (human).
T9 construct: polyprotein as encoded; the entry already carries R277Q; also called huNav1.7(R277Q)-beta1-beta2-beta3
The experiment in a line: binding FACS, CHO FlpIn cells. The method, then:
as §1, §2

In experiment [10] the target is T10, huNav1.7α (HEKa) (human, UniProt Q15858 1-1988).
T10 construct: also called HEKa huNav1.7α
The experiment in a line: binding FACS, HEKa cells. Summed up: (§3)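 Cells in FACS buffer (PBS, 10% FBS, NaN₃) were incubated with purified FLAG3-tagged ISVD for 30 minutes at 4° C. Bound ISVD was detected by flow cytometry with murine anti-Flag, and dead cells were excluded with 1 μg/mL propidium iodide.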

Experiment [11] deals with T6, huNav1.7α + β1-β2-β3. The experiment in a line: binding FACS, CHO FlpIn cells. The essentials:
as §3
This is another data set of the same source.

Experiment [12] has as its target T6, huNav1.7α + β1-β2-β3. The experiment in a line: competition FACS, HEK FlpIn cells, vs EC30 of CMYC3-F0103265B04. Here is the method: Competition FACS assays were performed with CMYC3-tagged ISVD F0103265B04 or F0103275B05(N93R) affinity maturation variant on a HEK FlpIn huNav1.7α+β1−β2−β3 transgenic cell line. Briefly, cells were resuspended in FACS buffer (PBS, 2% FBS, 0.05% NaN₃) and 1×10⁵ cells/well were transferred to 96-well V-bottom plates. Cells were subsequently resuspended in a 100 μL mixture of purified ISVD (dilution series) and CMYC3-tagged ISVD F0103265B04 (at a concentration equivalent to EC30) followed by incubation for 1.5 hours at 4° C. […] Between each step, the cells were centrifuged for 5 minutes at 200 g and washed with 100 μL/well FACS buffer. Prior to the read-out, the samples were resuspended in 5 nM TOPRO3 (Molecular probes, catalog #T3605) to exclude dead cells. F0103262CO2, F0103262B06, F0103265A11, F0103265B04, F0103275B05, F0103362B08, and F0103387G04 all compete with F0103265B04 for binding to huNav1.7α, in contrast to an irrelevant control ISVD (IRR) (see Table 21 and FIG. 15A, FIG. 15B, FIG. 15C, and FIG. 15D).

The target in experiment [13] is T11, huNav1.7α + β1 (HEKa/β1) (human, UniProt Q15858 1-1988; Q07699 19-218).
T11 construct: also called HEKa/β1 huNav1.7α
The experiment can be described thus: binding FACS, HEKa/β1 cells. The essentials: as §3

In experiment [14] the target is T12, huNav1.7α + β1-β2-β3 (human, UniProt Q15858 1-1988; A5A6L6 19-218; O60939 30-215; Q2KI11 23-215).
T12 construct: also called huNav1.7-beta1-beta2-beta3; huNav1.7-β1-β2-β3
The experiment can be described thus: competition FACS vs EC25 of F103275B05(N93R), HEK FlpIn.

Experiment [15] deals with T12, huNav1.7α + β1-β2-β3. The experiment can be described thus: competition FACS vs EC25 of F103275B05(N93R), CHO FlpIn.
The target of experiment [16] is T1, huNav1.7α + β1. The experiment can be described thus: competition FACS vs EC25 of F103275B05(N93R), HEK.
The target in experiment [17] is T2, huNav1.7α. The experiment in a line: competition FACS vs EC25 of F103275B05(N93R), HEK.
Experiment [18] has as its target T13, rhNav1.7α + β1-β2-β3 (rhesus monkey).
T13 construct: also called rhNav1.7-beta1-beta2-beta3; rhNav1.7-β1-β2-β3
The experiment in a line: competition FACS vs EC40 of F103275B05(N93R), CHO FlpIn.

Where two headings read alike, the source gives them in different places.

B1: F0103275B05-FLAG3 + HIS6 (VHH)
VHH: EVQLVESGGGLVQPGGSLRLSCAASGSIFNINSMAWYRRAPGKQRELVASSTNGGSTNYADSVKGRFTISRDNAKRVYLQMNSLTPEDTAVYYCNALLQPSIYDISRTYWGQGTLVTVSS
notes: also called F0103275B05 (parental)-FLAG-HIS6
Take B1: the EC50 in [1] and in experiment [2] was 13 nM throughout.

B2: F010300702 (bispecific antibody, V domains shown, not shown: small tags and cut ends)
VH: EVQLVESGGGLVQPGGSLRLSCAASGSIFNINSMAWYRRAPGKQRELVASSTNGGSTNYADSVKGRFTISRDNAKRVYLQMNSLTPEDTAVYYCRALLQPSIYDISRTYWGQGTLVTVSS
notes: also called F010300702 (n = 15); control bivalent ISVD
In [3], B2 displayed an MFI of 27700 MFI.

B3: F0103362B08 (VHH)
VHH: EVQLVESGGGLVQAGGSLRLSCAASVRPFSTSAMGWFRQAPEKEREAVAGILWNGIVTYYADSVKGRFTISRDNAKNEVYLQMNKLKPEDTAVYYCALDRDYGGRSFSAYEYEYWGQGTLVTVSS
notes: entry includes the FLAG-HIS6 tag; also called F0103362B08 (parental)-FLAG-HIS6
On to B3, for which the EC50 in [4] was 42 nM; in experiment [6] it was 43 nM; in experiment [8] it was 34 nM; in experiment [9], 34 nM; in [10], 19 nM; in experiment [11], 110 nM. In addition, the EC50 in experiment [13] is 34 nM. The binding result in [5] and in [7] was “no binding” each time. Besides, the IC50 in experiment [12] amounted to 150 nM.

B4: F010302380 (bispecific antibody)
chain: DVQLVESGGGLVQPGGSLRLSCAASGSIFNINSMAWYRRAPGKQRELVASSTNGGSTNYADSVKGRFTISRDNAKRVYLQMNSLTPEDTAVYYCRALLQPSIYDISRTYWGQGTLVTVSSGGGGSGGGGSGGGGSGGGGSGGGGSGGGGSGGGGSGGGGSGGGGSGGGGSEVQLVESGGGLVQAGGSLRLSCVTSGRTSDLSTMNWFRQAPGKEREFVARITRRGSTYYAESVKERFIISRDNAKNTVYLQMNSLKPEDTANYYCTAASEMGYHYRGQGTQVTVSSGAADYKDHDGDYKDHDIDYKDDDDKGAAHHHHHH
notes: also called F0103275B05(E1D, N93R)-50GS-F0103505D08(L108Q)-FLAG3-HIS6
For B4, the IC50 stood at 8.7 nM in [14]; 8.1 nM in experiment [15]; 110 nM in [16]; 67 nM in [17]; 2 nM in experiment [18].

B5: F010301080 (VHH)
VHH: EVQLVESGGGLVQPGGSLRLSCAASGMLFNANTQGWYRQAPGKQRELVAFIFWGGYVTYNDSVKGRFTISRDNAKRTMYLQMNSLKPEDSAIYYCSLSRYLGQGTLVTVSS
Turning to B5, the EC50 in [4] amounted to 2.6 nM; in experiment [6], 3.4 nM; in [8], 2.5 nM; in [9], 3.2 nM. Moreover, the binding result in experiment [5] and in [7] was “no binding” each time.

B6: F010300191 (bispecific antibody)
chain: EVQLVESGGGLVQPGGSLRLSCAASGSIFNINSMAWYRRAPGKQRELVASSTNGGSTNYADSVKGRFTISRDNAKRVYLQMNSLTPEDTAVYYCNALLQPSIYDISRTYWGQGTLVTVSSGGGGSGGGGSGGGGSGGGGSGGGGSGGGGSGGGGSGGGGSGGGGSGGGGSEVQLVESGGGLVQAGGSLRLSCAASGGTGRRYAMGWFRQAPGKEREIVAAIRWSAMTYYADDGKGRFTISRDNAKNTVYLQMNSLKPEDTAIYYCAYTWDYFKYDQVRAYRGWGQGTLVTVSSGAADYKDHDGDYKDHDIDYKDDDDKGAAHHHHHH
notes: also called F0103275B05-50GS-F0103240B04-FLAG3-HIS6
Turning to B6, the IC50 in experiment [14] turned out to be 0.1 nM; in [16], 110 nM; in [17] it was 67 nM.

One may read the EC50 as the concentration giving half of the maximal effect. As a reminder, the IC50 is the concentration that inhibits the measured activity by half.

The record behind these values is patent US20240002497A1 (Merck Sharp & Dohme, published 2024).
